Results on one molecule are retold here after US20170224836A1 (Novartis, published 2017).

Assay [1] concerns the target T1, human CDH6 on cells (human, UniProt P55285 54-790).
T1 sequence: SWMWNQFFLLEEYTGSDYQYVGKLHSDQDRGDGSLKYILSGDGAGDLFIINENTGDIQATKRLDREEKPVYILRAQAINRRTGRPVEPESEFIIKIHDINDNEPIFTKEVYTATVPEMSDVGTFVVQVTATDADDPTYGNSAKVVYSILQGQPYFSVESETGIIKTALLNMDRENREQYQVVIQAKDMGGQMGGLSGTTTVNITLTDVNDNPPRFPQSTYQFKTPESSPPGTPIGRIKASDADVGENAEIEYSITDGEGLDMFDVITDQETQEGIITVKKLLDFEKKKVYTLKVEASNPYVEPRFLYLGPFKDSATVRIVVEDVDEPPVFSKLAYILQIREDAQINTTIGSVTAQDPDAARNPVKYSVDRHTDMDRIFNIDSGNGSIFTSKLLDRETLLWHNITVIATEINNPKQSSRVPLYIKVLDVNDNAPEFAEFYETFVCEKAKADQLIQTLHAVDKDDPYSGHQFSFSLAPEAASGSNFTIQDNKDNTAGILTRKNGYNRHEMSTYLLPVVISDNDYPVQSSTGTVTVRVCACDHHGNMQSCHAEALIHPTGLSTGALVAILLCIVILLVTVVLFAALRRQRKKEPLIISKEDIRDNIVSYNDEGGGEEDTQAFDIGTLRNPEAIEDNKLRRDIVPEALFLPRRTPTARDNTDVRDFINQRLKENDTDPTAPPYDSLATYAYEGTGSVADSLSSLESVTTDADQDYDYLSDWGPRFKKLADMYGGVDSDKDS
The assay can be described thus: FACS on OVCAR3 cells.

The target in assay [2] is T2, hCDH6aa54-615 APPavi (human, UniProt P55285 54-615).
T2 sequence: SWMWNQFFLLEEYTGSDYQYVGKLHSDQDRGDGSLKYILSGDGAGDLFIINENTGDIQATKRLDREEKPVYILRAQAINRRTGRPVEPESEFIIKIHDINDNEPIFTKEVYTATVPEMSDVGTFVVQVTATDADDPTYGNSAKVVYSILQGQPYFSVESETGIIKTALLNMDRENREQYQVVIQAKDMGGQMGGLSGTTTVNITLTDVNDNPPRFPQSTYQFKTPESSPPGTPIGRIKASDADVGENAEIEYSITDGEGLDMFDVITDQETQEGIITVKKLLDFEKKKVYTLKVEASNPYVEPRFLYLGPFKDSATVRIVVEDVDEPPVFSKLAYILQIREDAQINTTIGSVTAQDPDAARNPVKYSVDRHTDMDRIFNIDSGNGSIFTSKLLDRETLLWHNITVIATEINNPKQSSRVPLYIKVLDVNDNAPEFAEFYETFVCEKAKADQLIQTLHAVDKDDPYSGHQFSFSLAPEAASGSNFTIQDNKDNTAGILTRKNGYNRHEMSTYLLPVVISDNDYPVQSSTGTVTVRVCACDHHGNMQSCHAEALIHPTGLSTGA
Description: SPR binning.

Broadly, the EC50 (read off the curve) is the concentration at which the effect is half-maximal.

B1: NOV0712 (antibody, human IgG1, kappa, V domains shown)
VH: QVQLLESGGGLVQPGGSLRLSCAASGFTFSSHGMHWVRQAPGKGLEWVSVISGSGSNTGYADSVKGRFTISRDNSKNTLYLQMNSLRAEDTAVYYCARQWGSYAFDSWGQGTLVTVSS
VL: DIQMTQSPSSLSASVGDRVTITCRASQSISSYLNWYQQKPGKAPKLLIYAVSTLQSGVPSRFSGSGSGTDFTLTISSLQPEDFATYYCQQSGTFPPTTFGQGTKVEIKR
In the case of B1, the half-maximal effective concentration (EC50 (read off the curve)) in assay [1] is about 0.4 nM. Also, the “response of secondary antibody on primary antibody-CDH6 complex” value in assay [2] was -1.82.
